Measurements taken from patent US12583915 (MEDPACTO, dated 2026).
Substitutions are numbered along the chain they refer to. Values belong to the binder of their own block, whether it stands above or below them.

What was measured:
human BAG2 protein [1] = biological target: T1, human BAG2 protein (human, UniProt O95816 2-211); test: Western blot on MDA-MB-231 cell lysate
T1 construct: also called BAG2 polypeptide; Bcl-2-associated athanogene 2

[2] = biological target: T2, GST-Bag Full (GST fusion of full-length human BAG2) (human, UniProt O95816 1-211); test: immunoblot on lysate of HEK293T cells transfected with GST-Bag Full vector
T2 construct: Expressed in HEK293T cells, tested in cell lysate by immunoblot; band at about 50 kDa; also called GST-Bag Full vector product; full-length BAG2 polypeptide; not shown: GST tag from the pcDNA3.1+/GST vector, about 26 kDa
Description: Next, for domain mapping of the BAG2 antigen to which the ten antibodies identified in Section 1 above, cells, to which the GST-Empty vector (pcDNA3.1+/GST vector, NovoPro Bioscience Inc. China) having a molecular weight of about 26 kDa was introduced, was used as a negative control. GST-Bag Full vector, GST-Bag F1 vector, GST-Bag F2 vector, GST-Bag F3 vector, and GST-Bag F4 vector, each including polynucleotides encoding human BAG2 protein and polynucleotides encoding fragments of the BAG2 protein, were introduced into cells, and the cells with the vectors introduced thereinto were cultured to express the genes, and then, cell lysates were obtained. For cell lysates, immunoblotting was performed using each of the 10 antibodies. The polynucleotide encoding the human BAG2 protein has the nucleotide sequence of SEQ ID NO: 70. The GST-Bag F1, -Bag F2, -Bag F3, and -Bag F4 vectors consist of the nucleotide sequences of SEQ ID NOS: 71 to 74, respectively.
FIGS. 2A and 2B show the results of immunoblotting for the full-length BAG2 polypeptide of anti-BAG2 antibody or a fragment thereof. […] In detail, the immunoblotting was performed as follows: each of the vectors was introduced into HEK293T cells by lipofectamine transfection (Thermo Fisher Scientific, Inc., Waltham, MA, USA) method, and the obtained transformed cells were cultured at a temperature of 37° C. in DMEM (Welgene) medium containing 10% FBS, 100 U/ml penicillin and 100 µg/ml streptomycin for 30 hours, and then cells were isolated. The isolated cells were disrupted using the same method as described in connection with FIG. 1 and subjected to […] analysis on a 12% gel. For immunoblotting, after reacting for 1 hour with the same blocking solution as described in connection with FIG. 1, each of the 10 purified anti-BAG2 antibodies having a concentration of 2 mg/ml was used as a primary antibody at a dilution of 1/10000 dilution and bound to the cells. The goat anti-mouse HRP conjugate used as the secondary antibody was used at a 1/5000 dilution concentration, and Film-photosensing was carried out in the dark using EGL reagent (Amersham Pharmacia Biotech) as a substrate. Standard molecular marker sizes were expressed to confirm the size of BAG2.

Myc-tag BAG2 = biological target: T3, Myc-tag BAG2 (Homo sapiens (Human), UniProt O95816 1-211, limits assumed); test: sandwich ELISA on lysate of MDA-MB-231 cells overexpressing Myc-tag BAG2 (OE) against empty vector cells (EV)
T3 construct: Expressed in MDA-MB-231 cells; 30 ug of lysate tested in the sandwich ELISA against cells with the Myc-tag empty vector (EV); not tied to this vector in so many words; also called BAG2 overexpressed from the Myc-tag BAG2 expression vector; OE; not shown: Myc tag

human BAG2 protein [3] = biological target: T1, human BAG2 protein; test: selection of hybridoma clones by immunoblotting

T1 sequence (O95816 2-211 limits assumed): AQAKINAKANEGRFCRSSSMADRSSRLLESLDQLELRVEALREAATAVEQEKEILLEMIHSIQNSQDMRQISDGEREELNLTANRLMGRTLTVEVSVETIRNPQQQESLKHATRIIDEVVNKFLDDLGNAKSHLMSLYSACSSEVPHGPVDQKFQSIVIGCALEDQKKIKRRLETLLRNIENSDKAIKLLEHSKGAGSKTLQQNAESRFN
T2 sequence (O95816 whole entry, the tested form may be a part): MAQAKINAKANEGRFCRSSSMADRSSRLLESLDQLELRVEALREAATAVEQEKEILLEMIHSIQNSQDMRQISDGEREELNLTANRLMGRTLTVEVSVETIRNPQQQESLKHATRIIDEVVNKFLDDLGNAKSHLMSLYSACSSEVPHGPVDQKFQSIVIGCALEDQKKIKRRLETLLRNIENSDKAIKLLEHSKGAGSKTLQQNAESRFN
T3 sequence (O95816 whole entry): as the sequence (O95816 whole entry, the tested form may be a part) above

- binding result (human BAG2 protein [1]): binds
- binding result [2]: binds
- binding result (Myc-tag BAG2): binds
B1: 3G8 antibody (antibody, V domains shown)
VH: QIQLVQSGPELKKPGETVKISCKASGYSFTKYGMNWVKQAPGKDIKWMGWINTNTGEATYGEEVKGRFAFSLETSASTAYLQINNLKNEDTATYFCARLGLRYLDYWGQGTTLTVSS
VL: DIVMTQSPASLVVSLGQRATISCRASKSVSTSDYSYMHWYQQKPGQPPKVLIYLASNLESGVPARFSGSGSGTDFTLNIHPVEEEDAATYYCQHNRELPPTFGAGTKLELK
notes: Mouse monoclonal antibody from a hybridoma; also called 3 GB (as misprinted); anti-BAG2 antibody 3G8

- binding result (human BAG2 protein [1]): binds
- binding result [2]: binds
- binding result (Myc-tag BAG2): binds
B2: 9B12 antibody (antibody, V domains shown)
VH: QVQLQQSGAELVRPGTSVKVSCKASGYAFTNYMIEWIKQRPGQGLEWIGVINPGSGGSYYNEKVKGKATLTADRSSSTAYMQFSSLTADDSGVYFCRIYGNYKGYFDHWGQGTTLTVSS
VL: DIVMTQSPSSMYASLGERVTITCKASQDMNSYLSWFQQKPGKSPKTLIYRANRLVDGVPSRFSGSGSGQDYSLTISSLEYEDMGIYYCLQNDEFPFTFGSGTKLEMK
notes: Mouse monoclonal antibody from a hybridoma; Capture antibody in the sandwich ELISA; also called anti-BAG2 antibody 9B12

- binding result (human BAG2 protein [1]): binds
- binding result [2]: binds
B3: 3B10 antibody (antibody, V domains shown)
VH: B2 VH with S7P, V12A, Y27H, S58T, N61S, F83L
VL: B2 VL with A51S, E79D, M106I
notes: Mouse monoclonal antibody from a hybridoma; also called anti-BAG2 antibody 3B10

- binding result (human BAG2 protein [1]): binds
- binding result [2]: binds
B4: 9B3 antibody (antibody, V domains shown)
VH: B2 VH with Q1E, R74K, G92A, H108Y
VL: B2 VL with M29I, M106I
notes: Mouse monoclonal antibody from a hybridoma; also called anti-BAG2 antibody 9B3

- binding result (human BAG2 protein [3]): binds
- binding result [2]: binds
- binding result (Myc-tag BAG2): binds
B5: 2A11 antibody (antibody, V domains shown)
VH: QVQLQQPGAELVRPGASVTLSCKASGYTFTDYEMHWVKQTPVHGLEWIGIIDPETGGTAYNQKFKGKATLTADKSSSTAYMELRSLTSEDSAVYYCTRGKFYYSGRDYAMDYWGQGTSVTVSS
VL: DVLMTQTPLSLPVSLGDQASISCRSSQSIVHSNGNTYLEWYLQKPGQSPKLLIYKVSNRFSGVPDRFSGSGSGTDFTLKISRVEAEDLGVYFCFQGSQVPPTFGGGTKLEIK
notes: Mouse monoclonal antibody from a hybridoma; Capture antibody in the sandwich ELISA; also called anti-BAG2 antibody 2A11

- binding result (human BAG2 protein [1]): binds
- binding result [2]: binds
B6: 3B5 antibody (antibody, V domains shown)
VH: EVQLQQSGPELVKPGASVKLSCKASGYSFTDYTFYWVRQSHGESLEWIGYIDPYNGGNTYNRKFKGKATLTVDKSSSTAFMHLNSLTSEDSAVYYCARGYYRYGGGGDFDYWGQGTTLTVSS
VL: B5 VL with I29L, E39H, Y54H, V90I, F94S, G96N, S97T, Q98H, V99I, G104A
notes: Mouse monoclonal antibody from a hybridoma; also called anti-BAG2 antibody 3B5

- binding result (human BAG2 protein [1]): binds
- binding result [2]: binds
B7: 4C2 antibody (antibody, V domains shown)
VH: B5 VH with G57A
VL: B5 VL with I53F
notes: Mouse monoclonal antibody from a hybridoma; also called anti-BAG2 antibody 4C2

- binding result (human BAG2 protein [1]): binds
- binding result [2]: binds
- binding result (Myc-tag BAG2): binds
B8: 8C4 antibody (antibody, V domains shown)
VH: B5 VH with G56A
VL: B5 VL with I53F
notes: Mouse monoclonal antibody from a hybridoma; also called 8G4 (as misprinted); anti-BAG2 antibody 8C4

- binding result (human BAG2 protein [3]): binds
- binding result [2]: binds
- binding result (Myc-tag BAG2): binds
B9: 3F12 antibody (antibody, V domains shown)
VH: QVQLQESGPDLVKPSQSLSLTCTVTGYSITSGYSWHWIRQFPGNKLEWMGYIYYRGSTNYNPSLKSRISITRDTSKNQFFLLLKSVTTEDTATYYCAREAYWGQGTLVTVSA
VL: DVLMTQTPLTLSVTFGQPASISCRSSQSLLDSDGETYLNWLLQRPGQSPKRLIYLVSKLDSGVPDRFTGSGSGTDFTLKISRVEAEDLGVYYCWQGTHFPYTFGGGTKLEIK
notes: Mouse monoclonal antibody from a hybridoma; also called anti-BAG2 antibody 3F12
